{"source": "patent US20240409619A1", "target": "SARS-COV-2 spike protein, isolate USA-WA1/2020, on pseudotyped virus (SARS-COV-2) (UniProt P0DTC2)", "experiment": "cell-based or functional assay", "data": [{"substance": "DMAb 2130_FcTM (antibody)", "values": [{"measurement": "serum potency (IC50) against USA-WA1/2020 pseudovirus", "value": "1 to 2", "unit": "ng/mL"}]}]}
